Earlier results on one substance are cited in paper PMC6780499, “Characterization, Recombinant Production and Structure-Function Analysis of NvCI, A Picomolar Metallocarboxypeptidase Inhibitor from the Marine Snail Nerita versicolor” (Marine Drugs, 2019).

One series addresses T1, bCPA1 (Bos taurus, UniProt P00730).
T1 sequence (P00730 111-419): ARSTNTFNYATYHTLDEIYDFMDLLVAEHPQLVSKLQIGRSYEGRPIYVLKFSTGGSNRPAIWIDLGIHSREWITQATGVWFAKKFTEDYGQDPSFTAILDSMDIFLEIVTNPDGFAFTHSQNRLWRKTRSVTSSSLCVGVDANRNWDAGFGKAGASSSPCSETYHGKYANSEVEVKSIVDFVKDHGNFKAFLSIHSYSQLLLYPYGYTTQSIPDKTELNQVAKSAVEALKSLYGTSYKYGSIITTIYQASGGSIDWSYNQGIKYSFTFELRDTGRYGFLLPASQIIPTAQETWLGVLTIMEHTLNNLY
Conditions: ref Arolas et al., 2005 [12]; cited from earlier work. An excerpt:
(§1) Table 2 Ki values of various proteinaceous metallocarboxypeptidases (MCPs) inhibitors. | column: Ki (nM) / rPCI (a); Ki (nM) / rTCI (b); Ki (nM) / rLCI (c); Ki (nM) / rACI (d); Ki (nM) / rhuman latexin (e)

In the next series the target is T2, hCPA1 (Homo sapiens, UniProt P15085).
T2 sequence (P15085 111-419): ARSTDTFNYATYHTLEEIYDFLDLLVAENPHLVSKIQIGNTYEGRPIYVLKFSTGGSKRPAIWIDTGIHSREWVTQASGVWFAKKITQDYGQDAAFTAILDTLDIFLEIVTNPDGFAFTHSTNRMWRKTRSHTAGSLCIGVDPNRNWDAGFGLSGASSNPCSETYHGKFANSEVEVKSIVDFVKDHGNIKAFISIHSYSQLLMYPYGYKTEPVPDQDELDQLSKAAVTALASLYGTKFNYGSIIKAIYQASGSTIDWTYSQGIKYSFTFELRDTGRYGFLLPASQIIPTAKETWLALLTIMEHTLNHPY
Conditions: ref Arolas et al., 2005 [12]; cited from earlier work.
Excerpt: as §1

Another series has as its target T3, hCPA2 (Homo sapiens, UniProt P48052).
T3 sequence (P48052 115-419): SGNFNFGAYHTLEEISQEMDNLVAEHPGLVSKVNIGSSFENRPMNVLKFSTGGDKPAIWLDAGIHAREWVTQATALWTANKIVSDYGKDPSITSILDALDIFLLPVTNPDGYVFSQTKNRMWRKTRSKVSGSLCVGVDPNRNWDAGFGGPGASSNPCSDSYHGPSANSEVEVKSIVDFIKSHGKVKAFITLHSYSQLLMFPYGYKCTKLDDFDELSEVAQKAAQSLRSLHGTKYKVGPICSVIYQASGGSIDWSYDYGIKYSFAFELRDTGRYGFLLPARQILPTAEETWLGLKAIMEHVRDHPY
Conditions: ref Arolas et al., 2005 [12]; cited from earlier work.
Excerpt: as §1

The next series addresses T4, hCPA4 (Homo sapiens, UniProt Q9UI42).
T4 sequence (Q9UI42 114-421): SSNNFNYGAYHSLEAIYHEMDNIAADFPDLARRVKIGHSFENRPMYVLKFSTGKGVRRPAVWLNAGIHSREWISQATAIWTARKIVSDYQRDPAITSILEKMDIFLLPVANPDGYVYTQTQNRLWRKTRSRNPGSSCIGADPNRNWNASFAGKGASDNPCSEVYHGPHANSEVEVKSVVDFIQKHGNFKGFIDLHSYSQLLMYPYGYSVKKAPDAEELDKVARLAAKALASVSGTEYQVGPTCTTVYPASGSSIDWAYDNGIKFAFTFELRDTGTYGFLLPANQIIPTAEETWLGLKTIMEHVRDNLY
Conditions: ref Tanco et al., 2010 [22]; cited from earlier work.
Excerpt: as §1

In another series the target is T5, pCPB (Sus scrofa, UniProt P09955).
T5 sequence (P09955 111-416): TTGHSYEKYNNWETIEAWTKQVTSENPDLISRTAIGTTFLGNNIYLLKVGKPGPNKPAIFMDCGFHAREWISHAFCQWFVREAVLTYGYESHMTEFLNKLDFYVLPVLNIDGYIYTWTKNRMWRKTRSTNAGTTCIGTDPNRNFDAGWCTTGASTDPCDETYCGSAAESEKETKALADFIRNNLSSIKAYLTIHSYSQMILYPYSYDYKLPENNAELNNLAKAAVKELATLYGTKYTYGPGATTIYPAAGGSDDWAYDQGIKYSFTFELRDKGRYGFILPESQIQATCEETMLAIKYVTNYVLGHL
Conditions: ref Arolas et al., 2005 [12]; cited from earlier work. An excerpt: Table 2 Ki values of various proteinaceous metallocarboxypeptidases (MCPs) inhibitors. | column: Ki (nM) / rPCI (a); Ki (nM) / rTCI (b); Ki (nM) / rLCI (c)

In a further series the target is T6, hCPB (Homo sapiens, UniProt P15086).
T6 sequence (P15086 111-417): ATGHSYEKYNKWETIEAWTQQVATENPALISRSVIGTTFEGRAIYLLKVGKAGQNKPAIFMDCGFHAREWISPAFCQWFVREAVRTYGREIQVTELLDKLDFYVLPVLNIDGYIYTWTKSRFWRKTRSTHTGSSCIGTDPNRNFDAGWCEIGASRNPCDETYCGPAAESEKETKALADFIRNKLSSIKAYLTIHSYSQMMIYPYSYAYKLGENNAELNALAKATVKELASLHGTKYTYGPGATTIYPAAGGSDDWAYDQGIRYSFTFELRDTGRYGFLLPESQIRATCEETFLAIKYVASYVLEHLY
Conditions: ref Arolas et al., 2005 [12]; cited from earlier work. From the text:
Table 2 Ki values of various proteinaceous metallocarboxypeptidases (MCPs) inhibitors. | column: Ki (nM) / rPCI (a); Ki (nM) / rTCI (b); Ki (nM) / rLCI (c); Ki (nM) / rhuman latexin (e)

Another series concerns the target T7, bTAFI (Bos taurus, UniProt Q2KIG3).
T7 sequence (Q2KIG3 115-423): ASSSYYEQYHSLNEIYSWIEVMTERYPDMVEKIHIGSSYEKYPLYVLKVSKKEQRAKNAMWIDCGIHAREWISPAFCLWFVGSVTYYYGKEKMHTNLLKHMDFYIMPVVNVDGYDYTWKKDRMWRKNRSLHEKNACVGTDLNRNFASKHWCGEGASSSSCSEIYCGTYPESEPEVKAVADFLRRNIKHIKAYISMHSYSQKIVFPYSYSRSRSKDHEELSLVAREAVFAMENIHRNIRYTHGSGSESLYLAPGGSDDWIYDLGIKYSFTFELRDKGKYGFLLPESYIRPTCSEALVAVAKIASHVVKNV
Conditions: ref Arolas et al., 2005 [12]; cited from earlier work. From the text: Table 2 Ki values of various proteinaceous metallocarboxypeptidases (MCPs) inhibitors. | column: Ki (nM) / rPCI (a); Ki (nM) / rTCI (b)

The target of another series is T8, hTAFI (Homo sapiens, UniProt Q96IY4).
T8 sequence (Q96IY4 115-423): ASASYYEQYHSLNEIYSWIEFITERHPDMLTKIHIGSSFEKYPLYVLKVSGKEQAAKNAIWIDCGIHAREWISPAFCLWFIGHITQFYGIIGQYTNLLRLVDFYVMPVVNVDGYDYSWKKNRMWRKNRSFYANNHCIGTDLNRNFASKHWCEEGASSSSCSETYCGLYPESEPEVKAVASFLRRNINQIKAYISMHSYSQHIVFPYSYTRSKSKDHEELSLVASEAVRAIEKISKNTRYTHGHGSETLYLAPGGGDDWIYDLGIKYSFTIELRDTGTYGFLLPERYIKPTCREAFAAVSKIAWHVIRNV
Conditions: ref Arolas et al., 2005 [12]; cited from earlier work. From the text:
Table 2 Ki values of various proteinaceous metallocarboxypeptidases (MCPs) inhibitors. | column: Ki (nM) / rPCI (a); Ki (nM) / rTCI (b); Ki (nM) / rACI (d); Ki (nM) / rhuman latexin (e)

The term Ki denotes the equilibrium dissociation constant of an inhibitor or competing ligand from its target. Take “rPCI: recombinant proteinaceous carboxypeptidase inhibitor from potato (QQHADPICNKPCKTHDDCSGAWFCQACWNSARTCGPYVG; UniProt P01075 1-39, looked up) [reference compound]”: the Ki with bCPA1 is 1.6 ± 0.2 nM; with hCPA1 it was 1.6 ± 0.3 nM; with hCPA2, 8.8 ± 0.7 nM; with hCPA4, 1.3 ± 0.1 nM; in the series with pCPB, 7.2 ± 0.6 nM; with hCPB, 1.8 ± 0.3 nM. For the same substance, the Ki with bTAFI was 2.5 ± 0.4 nM; with hTAFI, 5.2 ± 0.5 nM.
